# Data from patent US20200261490.
# B1: murine PAPP-A2 (protein)
# chain: QNGGGASLRRVETFNSQGGLPVLYFTGKRERLLLRPEVLAEIPREAFTVEAWVRPEGGQSNPAIIAGVFDNCSHTVNDKGWALGIRSGKDKGWRDARFFFSLRTDRMKKATIVTGHSRYQPGMWTHVAATYDGQHTALYVDGTRVASSRDQFGPLNSPFMASCRSLILGGDSSEDGHYFRGYLGTLVIWSTALSQTHLQHSPLHPSAADELTTLILTATFDPLMEQWAPFRDDLYPRLEVLQDSESQPEILSPLQPPPCGQTACDNVELISQYNKHGPLRREKVIRYQVVNIYDDEGLHPIVSDHQIRRQHEALNQAFSRYNISWQLSVHRVHNSTLRHRVVLVNCEPSKIGNDHCDPECEHPLTGFDGGDCRLQGRCYSWNRRDGLCHVECNNMLNDFDDGDCCDPEVTDVRKTCFDPDSPKRAYMSVKELKEALQLNSTHFLNVYFASSVREDLAGSATWPWDKEALSHLGGVVLNPTYYGMLGHTNIMIHEVGHVLGLYHVFKGVSERESCDDPCRETVPSMETGDLCADTAPTPKSKLCRDPEPANDTCGFTLFPGAPFNNYMSYTDDECTDNFTPNQVARMHCYLDLVYQQWSESQKPTPIPIPPMVIGQTHKSLTIHWLPPISGVVYDRAPDSMCSACTEDGTFRQYVYKASSGRVCDSSGYWTPEEAVGPPDVDQPCEPSLQAWSPELHLNHMNMTVPCPAEGCSLELLFQYPVQADTLTLWVTYLSMNSSKAFFDIEILLEHKKSMHLGPLNTFCDIPLTIKLHMDEKVMGAKVYTFDERMEIDAALLTSRPNSSLCSGCKPMSYQVLREPPFSSGLPMVVTHPHRKFTDTEVIPGQMYQYQVQAEAVGELGEASPPLSHIHGGPYCGDGKVERSIGEMCDDGDLLNGDGCSRACELEEGFNCAGEPSLCYRYEGDGVCEDFEKESIITDCGLHTPEGYLDQWASQAYSYHEDKEKCPVSLVTGEPHSMICTSWHPDSSPYHSFPGWFPCVFSLKKDQDAGSEQAKDSLQKDNEIWLEVCFNRPGVAVAIYIFLASDGVTPGEHQQATVTLYLIDVSGSNHSLGTYGLSCQQNPLVINVSHHVNVYPQHTSSMLLNFSSPLVGISAVALRTSSQTSSSAPSNCIPEQNYEGKSCAQRPCGEQGRCAPLLLDHTDMVNCTSSSPGHMECAITCQRGYVLQTSSGQYLRNMQKEILLTCSSGHWDKDVICKRLDCGVPDSSLVNYANFSCLEGTDFLKQCSISCVPPAKLQGLNPWLTCLEDGLWSLPEVYCKLECEAPPVIPNANLLLPHFLEGNHDVGTICKYECKPGYYVKETSGSQGKNKFLKIQCLDDGSWEQGSCVPVVCEPPPPVFEGMYECTDGFKLDSQCVLNCNQETEGIPILCTKEGLWTQEFKLCENLQGECPPPTSELNSVEYKCGQGYGIGAVCSPSCVIPPSDPVILPENVTTDTLEHWMEPVKVQSIVCTGRRQWHPDPSLVHCIQSCEPFQADGWCDTINNRAYCNYDGGDCCSSTLSSKKVIPFAADCDLDECTCRDPKAEENQ
# What was measured:
# [1] = target: recombinant human stanniocalcin 1, C-terminally myc-his-tagged
# [2] = target: recombinant human stanniocalcin 2, C-terminally myc-his-tagged
# [3] = target: STC2(C120A), human stanniocalcin 2 with cysteine 120 replaced by alanine, C-terminally myc-his-tagged
protein,measurement,setting,value
B1,proteolytic activity of murine PAPP-A2 towards radiolabeled IGFBP-5,[1],"Murine PAPP-A and PAPP-A2 are inhibited by STC1 and STC2, but not STC2(C120A)"
same,proteolytic activity of murine PAPP-A2 towards radiolabeled IGFBP-5,[2],"Murine PAPP-A and PAPP-A2 are inhibited by STC1 and STC2, but not STC2(C120A)"
same,proteolytic activity of murine PAPP-A2 towards radiolabeled IGFBP-5,[3],"Murine PAPP-A and PAPP-A2 are inhibited by STC1 and STC2, but not STC2(C120A)"
